Assay results taken from article PMC8079415, “Neutron reflectometry and NMR spectroscopy of full-length Bcl-2 protein reveal its membrane localization and conformation” (Communications Biology, 2021).

Columns and labels:
Settings in all cases: both partners purified
[1] = biological target: T1, full-length human Bcl-2 protein (human, UniProt P10415 1-239); assay: NMR titration; Bax-BH3 peptide added at 1:1, 1:3, 1:6 and 1:12 molar ratio to 0.3 mM Bcl-2 or 0.25 mM Bcl-2 ΔTM; 1H-15N TROSY-HSQC, chemical shift perturbations; 5 mM DPC micelles, 20 mM NaPi, 20 mM NaCl, 2 mM TCEP, pH 6.0, 310 K
T1 construct: three additional N-terminal residues left by the design of the pET-15b expression vector; Bcl-2 (B-cell lymphoma 2), human, full length, 239 aa; 15N (or 13C,15N) uniformly labelled for NMR; Surmise: GSH is what is left after the pET-15b His tag is cut off with thrombin; also called B-cell lymphoma 2; intact human Bcl-2; source: in DPC micelles

Bcl-2 ΔTM (aa 1-207) = biological target: T2, Bcl-2 ΔTM (aa 1-207) (human, UniProt P10415 1-207); assay: as above
T2 construct: three additional N-terminal residues left by the design of the pET-15b expression vector; Bcl-2, human, residues 1-207; a stop codon ends the protein at position 207; 15N labelled for NMR; Made from the full-length construct by site-directed mutagenesis (stop codon TAA); also called Bcl-2 ∆TM; soluble variant with the C-terminal anchor removed; source: E. coli, pET-15b, purified as the …

[2] = biological target: T3, Bim (138-174) BH3 peptide from Homo sapiens (Homo sapiens, N-terminal acetyl (Ac-); C-terminal amide (-NH2)); assay: NMR titration; Bim-BH3 peptide added at 1:1, 1:3 and 1:6 molar ratio to 0.4 mM Bcl-2ΔN(1-82); 1H-15N TROSY-HSQC; 5 mM DPC micelles, 20 mM NaPi, 20 mM NaCl, 2 mM TCEP, pH 6.0; clear samples after centrifugation
T3 construct: Bim, Homo sapiens, residues 138-174; The peptide formed a colloidal suspension in buffer; spectra were recorded on clear samples after centrifugation; also called Bim-BH3 peptide; Bim peptide; source: synthetic peptide, bought: GenScript

[3] = biological target: T1, full-length human Bcl-2 protein; assay: NMR titration; Nur77 peptide added at 1:6, 1:12 and 1:24 molar ratio to 0.3 mM Bcl-2; 1H-15N TROSY-HSQC, chemical shift perturbations; 5 mM DPC micelles, 20 mM NaPi, 20 mM NaCl, 2 mM TCEP, pH 6.0

T3 sequence (peptide, as listed by the source): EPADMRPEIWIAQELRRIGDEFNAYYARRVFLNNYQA
T2 sequence (P10415 other isoform, or with tags, fused parts or gaps mutant): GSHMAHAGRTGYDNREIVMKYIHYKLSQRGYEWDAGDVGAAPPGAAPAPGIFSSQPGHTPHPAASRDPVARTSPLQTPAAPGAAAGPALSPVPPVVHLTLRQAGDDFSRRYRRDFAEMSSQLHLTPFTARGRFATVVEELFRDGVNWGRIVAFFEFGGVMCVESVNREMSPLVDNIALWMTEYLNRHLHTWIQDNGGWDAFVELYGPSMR

B1: 36-mer Bax-BH3 peptide from Mus musculus (peptide)
peptide: Ac-QPPQDASTKKLSECLRRIGDELDSNMELQRMIADVD-NH2
notes: Bax, Mus musculus, BH3 region, 36 residues; also called Bax-derived BH3 peptide; source: synthetic peptide, bought: GenScript
[1]
  binding result: binds
Bcl-2 ΔTM (aa 1-207)
  binding result: binds

B2: Bcl-2 ΔN(1-82) (domain or fragment, human)
chain: GSHMGPALSPVPPVVHLTLRQAGDDFSRRYRRDFAEMSSQLHLTPFTARGRFATVVEELFRDGVNWGRIVAFFEFGGVMCVESVNREMSPLVDNIALWMTEYLNRHLHTWIQDNGGWDAFVELYGPSMRPLFDFSWLSLKTLLSLALVGACITLGAYLGHK
notes: three additional N-terminal residues left by the design of the pET-15b expression vector; added start methionine: the construct starts its N-terminus with residues MGP (M before G83, P84); Bcl-2, human, the first 82 N-terminal amino acids deleted, C-terminal residues kept (full length is 239 aa); Gene bought from GenScript and sub-cloned into pET-15b; source: E. coli, pET-15b, purified as the …
[2]
  binding result: binds

B3: Nur77 peptide (peptide)
peptide: Ac-FSRSLHSLL-NH2
notes: Nur77 (NR4A1), 9-residue peptide; source: synthetic peptide, bought: GenScript
[3]
  binding result: binds
